Results: publication PMC3024764 (The Journal of Biological Chemistry, 2010)

Target: Pim-1 kinase (SPR analysis) (UniProt P11309 1-313)
Assay: SPR

Chain of Pim-1 kinase (SPR analysis) (P11309 whole entry): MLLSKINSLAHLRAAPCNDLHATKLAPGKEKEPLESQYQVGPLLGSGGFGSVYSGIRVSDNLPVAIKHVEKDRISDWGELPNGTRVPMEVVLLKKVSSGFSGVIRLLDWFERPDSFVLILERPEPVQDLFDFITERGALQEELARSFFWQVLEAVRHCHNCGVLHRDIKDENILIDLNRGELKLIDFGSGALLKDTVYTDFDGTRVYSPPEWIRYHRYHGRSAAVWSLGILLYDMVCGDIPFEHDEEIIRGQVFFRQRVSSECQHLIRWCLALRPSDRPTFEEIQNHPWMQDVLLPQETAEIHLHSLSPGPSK

RRRRRRRRKKPGLDRDQT [R8-T198mu peptide]
Kd: 4.25 µM
